# Data published in patent publication US20250042994A1 (HAINAN SIMCERE ZAIMING PHARMACEUTICAL, published 2025).
# Numbering of substitutions follows the chain as printed.
# B1: F3.121.4-L2H2 (antibody, mouse IgG1, kappa, V domains shown)
# VH: EVQLVQSGAEVKKPGASVKVSCKASGYTFTNYWMHWVRQAPGQGLEWMGEIDPSDNYANYNQEFQGRVTITVDKSASTAYMELSSLRSEDTAVYYCARHDGYFGALDYWGQGTTVTVSS
# VL: EIVLTQSPDFQSVTPKEKVTITCSASSSISSNYLHWYQQKPDQSPKLLIKRTSNLASGVPSRFSGSGSGTDFTLTINSLEAEDAATYYCQQASSIPRMFTFGQGTKLEIKR
# notes: humanized antibody of F3.121.4, VL2+VH2, murine IgG1 constant regions
# B2: F3.121.4-L2H4 (antibody, mouse IgG1, kappa)
# heavy: EVQLQQSGAEVKKPGASVKVSCKASGYTFTNYWMHWVRQRPGQGLEWMGEIDPSDNYANYNQEFQGRVTITVDKSASTAYMELSSLRSEDTAVYYCARHDGYFGALDYWGQGTTVTVSSAKTTPPSVYPLAPGSAAQTNSMVTLGCLVKGYFPEPVTVTWNSGSLSSGVHTFPAVLQSDLYTLSSSVTVPSSTWPSETVTCNVAHPASSTKVDKKIVPRDCGCKPCICTVPEVSSVFIFPPKPKDVLTITLTPKVTCVVVDISKDDPEVQFSWFVDDVEVHTAQTQPREEQFNSTFRSVSELPIMHQDWLNGKEFKCRVNSAAFPAPIEKTISKTKGRPKAPQVYTIPPPKEQMAKDKVSLTCMITDFFPEDITVEWQWNGQPAENYKNTQPIMDTDGSYFVYSKLNVQKSNWEAGNTFTCSVLHEGLHNHHTEKSLSHSPGK
# light: EIVLTQSPDFQSVTPKEKVTITCSASSSISSNYLHWYQQKPDQSPKLLIKRTSNLASGVPSRFSGSGSGTDFTLTINSLEAEDAATYYCQQASSIPRMFTFGQGTKLEIKRADAAPTVSIFPPSSEQLTSGGASVVCFLNNFYPKDINVKWKIDGSERQNGVLNSWTDQDSKDSTYSMSSTLTLTKDEYERHNSYTCEATHKTSTSPIVKSFNRNEC
# notes: humanized antibody of F3.121.4, VL2+VH4, murine IgG1 constant regions
# B3: F3.121.4-L2H1 (antibody, mouse IgG1, kappa, V domains shown)
# VH: B1 VH with G44R
# VL: B1 VL
# notes: humanized antibody of F3.121.4, VL2+VH1, murine IgG1 constant regions
# B4: F3.121.4-L2H3 (antibody, mouse IgG1, kappa)
# heavy: B2 heavy with Q5V
# light: B2 light
# notes: humanized antibody of F3.121.4, VL2+VH3, murine IgG1 constant regions
# B5: F3.121.4-L3H1 (antibody, mouse IgG1, kappa, V domains shown)
# VH: B1 VH with G44R
# VL: B1 VL with L47F, K50Y
# notes: humanized antibody of F3.121.4, VL3+VH1, murine IgG1 constant regions
# Target: T1, human CD19 on Raji cells (human, UniProt P15391 20-556)
# T1 construct: whole, on cells
# T1 sequence (looked up): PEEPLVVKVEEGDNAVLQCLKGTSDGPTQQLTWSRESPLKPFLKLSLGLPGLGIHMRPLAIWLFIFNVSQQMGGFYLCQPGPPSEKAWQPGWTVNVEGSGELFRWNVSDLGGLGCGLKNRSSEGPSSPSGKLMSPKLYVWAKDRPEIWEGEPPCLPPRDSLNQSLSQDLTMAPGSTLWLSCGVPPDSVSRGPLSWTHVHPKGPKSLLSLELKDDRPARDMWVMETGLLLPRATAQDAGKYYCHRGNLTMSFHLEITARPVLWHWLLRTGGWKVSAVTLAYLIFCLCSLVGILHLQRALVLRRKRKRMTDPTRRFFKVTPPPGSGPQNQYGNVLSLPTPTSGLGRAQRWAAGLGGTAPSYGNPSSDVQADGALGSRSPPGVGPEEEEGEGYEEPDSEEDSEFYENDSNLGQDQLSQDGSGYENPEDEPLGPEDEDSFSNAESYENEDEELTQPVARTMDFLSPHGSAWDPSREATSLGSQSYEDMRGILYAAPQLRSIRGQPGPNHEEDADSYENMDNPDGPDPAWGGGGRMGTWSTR
# Assay: FACS on Raji cells
# Protocol: (§1) After the digestion was terminated, the cells were washed 2 times with a PBS buffer; and for suspension cell Raji, the supernatant of the medium was discarded by directly centrifugation, and the cell pellet was washed 2 times with PBS. After counting the cells in the previous step, the cell pellet was resuspended with [PBS+2% (w/w) BSA] blocking solution to 2×10⁶ cells/ml, and added to a 96-well FACS reaction plate at 50 μl/well, and then the sample to be tested was added at 50 μl/well, and incubated on ice for 2 h. The obtained mixture was centrifuged and washed 3 times with a PBS buffer. […] The obtained mixture was centrifuged and washed 5 times with a PBS buffer, and FACS (FACS Canto™, purchased from BD Company) was used for detection and result analysis. Data analysis was performed by software (FlowJo) to obtain the mean fluorescence intensity (MFI) of the cells. And then software (GraphPad Prism8) was used for analysis, data fitting, and EC50 value calculation. […] The same method was used to detect the binding of the chimeric antibodies to endogenous CD19-negative cells, MoLT4 cells (purchased from ATCC, CRL-1582), and CHO-K1 cells.
Binder,EC50 [nM],Maximum mean fluorescence intensity [MFI]
B1,0.41,30100
B2,0.37,29200
B3,0.38,29100
B4,0.45,29600
B5,0.38,32000

# Target: T2, Human CD19-his protein (human, UniProt P15391 20-291)
# T2 construct: bought protein; also called recombinant human CD19-His; CD19 full-length protein; not shown: His tag
# T2 sequence (looked up): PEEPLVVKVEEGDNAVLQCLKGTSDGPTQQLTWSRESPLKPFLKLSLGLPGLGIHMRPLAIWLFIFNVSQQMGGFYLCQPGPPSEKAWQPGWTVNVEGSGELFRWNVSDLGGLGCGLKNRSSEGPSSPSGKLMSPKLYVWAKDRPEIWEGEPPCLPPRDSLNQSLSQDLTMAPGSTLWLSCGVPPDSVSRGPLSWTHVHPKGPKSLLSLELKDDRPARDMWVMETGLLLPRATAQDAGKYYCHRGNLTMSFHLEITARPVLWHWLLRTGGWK
# Assay: ELISA, coated human CD19-His
# Protocol: Human CD19-his protein (purchased from ACROBiosystems, catalog number: CD9-H52H2) was diluted with PBS to a final concentration of 4 μg/mL, and then added to a 96-well ELISA plate at 100 μl/well. The plate was sealed with a plastic film and incubated overnight at 4° C., the plate was washed 2 times with PBS the next day, and then a blocking solution [PBS+2% (w/w) BSA] was added for blocking at room temperature for 2 h. The blocking solution was poured off, and 100 nM gradiently diluted CD19 chimeric antibody or control antibody was added at 50 μl/well. After incubation at 37° C. for 2 h, the plate was washed 3 times with PBS. […] TMB substrate was added at 50 μl/well, and incubated at room temperature for 10 min, and then a stop solution (1.0 N HCl) was added at 50 μl/well. The OD450 nm values were read by an ELISA microplate reader (Multimode Plate Reader, EnSight, purchased from Perkin Elmer).
Binder,OD450 at 0.0001 nM [OD450],OD450 at 0.001 nM [OD450],OD450 at 0.01 nM [OD450],OD450 at 0.10 nM [OD450],OD450 at 1.00 nM [OD450],OD450 at 10 nM [OD450],OD450 at 100 nM [OD450]
B1,0.1,0.13,0.37,1.51,2.42,2.41,2.55
B2,0.1,0.14,0.39,1.53,2.36,2.27,2.34
B3,0.1,0.13,0.38,1.52,2.42,2.45,2.57
B4,0.1,0.14,0.39,1.55,2.47,2.33,2.32
B5,0.1,0.14,0.39,1.62,2.42,2.37,2.17

# Target: T3, human CD19 on CHO-K1-human CD19 cells (human, UniProt P15391 20-556)
# T3 construct: whole, on cells; also called CHO-K1-human CD19-2C8
# T3 sequence (looked up): T1 sequence (looked up)
# Assay: FACS on CHO-K1-human CD19 cells
# Protocol: as §1
Binder,EC50 [nM],Maximum mean fluorescence intensity [MFI]
B1,1.14,52200
B2,1.13,52000
B3,1.08,53200
B4,1.17,52200
B5,1.13,53500

# Target: T2, Human CD19-his protein
# Assay: ELISA on coated human CD19-His
row,Binder,EC50 (read off the curve) [nM]
1,B1,~0.05
2,B2,~0.05
3,B3,~0.05
4,B4,~0.05
5,B5,~0.05

# Target: T4, human CD19 exon1-3-His tag protein (human, UniProt P15391 20-186, limits assumed)
# T4 construct: membrane-distal part of the extracellular region, made in HEK293E cells; not shown: His tag
# T4 sequence (looked up): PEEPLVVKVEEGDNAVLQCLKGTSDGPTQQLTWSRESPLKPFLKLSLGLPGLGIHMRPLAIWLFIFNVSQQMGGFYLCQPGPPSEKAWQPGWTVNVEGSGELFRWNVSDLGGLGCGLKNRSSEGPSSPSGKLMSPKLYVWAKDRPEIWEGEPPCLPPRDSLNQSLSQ
# Assay: ELISA, coated human CD19 exon 1-3-His
Binder,OD450 at 0.0001 nM [OD450],OD450 at 0.001 nM [OD450],OD450 at 0.01 nM [OD450],OD450 at 0.10 nM [OD450],OD450 at 1.00 nM [OD450],OD450 at 10 nM [OD450],OD450 at 100 nM [OD450]
B1,0.05,0.05,0.05,0.05,0.05,0.05,0.09
B2,0.05,0.05,0.05,0.05,0.04,0.05,0.08
B3,0.05,0.05,0.05,0.05,0.05,0.05,0.09
B4,0.05,0.05,0.05,0.05,0.05,0.05,0.08
B5,0.05,0.05,0.05,0.05,0.05,0.05,0.09

# Target: T2, Human CD19-his protein
# Assay: SPR Biacore, method of example 7.1, human CD19-His
# Protocol: A sample buffer and a running buffer were HBS-EP+ (10 mM HEPES, 150 mM NaCl, 3 mM EDTA and 0.05% surfactant P20) (GE Healthcare; BR-1006-69). The flow-through cell was set to 25° C. The sample block was set to 16° C. Both were pretreated with the running buffer. In each cycle, an antibody to be detected was first captured with a Protein A chip, and then a single concentration of CD19 antigen protein was injected. The binding and dissociation processes of the antibody and the antigen protein were recorded, and finally Glycine pH 1.5 (GE Healthcare; BR-1003-54) was used to complete chip regeneration. The binding was measured by injecting different concentrations of recombinant human CD19-His proteins in a solution for 240 s with a flow rate of 30 μl/min. The concentration started from 200 nM (see the detailed results for the actual concentration in the test) and was diluted at 1:1, making a total of 5 concentrations. The dissociation phase was monitored for up to 600 s and was triggered by switching from sample solution to running buffer. The surface was regenerated by washing with a 10 mM glycine solution (pH 1.5) for 30 s at a flow rate of 30 μl/min. Bulk refractive index difference was corrected by subtracting the response obtained from the goat anti-human Fc surface. Blank injection was also subtracted (=double reference). For calculation of apparent KD and other kinetic parameters, Langmuir 1:1 model was used.
# SPR (biacore) detection and data analysis were performed according to the method in example 7.1.
Binder,Kd [nM],koff [s⁻¹],kon [M⁻¹ s⁻¹]
B1,1.46,0.000195,134000
B2,1.53,0.000186,122000
B3,1.43,0.000186,130000
B4,1.38,0.000188,137000
B5,0.244,3.18e-05,130000
